According to PMC12820532 (Nucleic Acids Research, 2026):

Target: His-REV7 (human, UniProt Q9UI95 1-211)
Experiment: pull-down

Sequence of His-REV7 (Q9UI95 whole entry): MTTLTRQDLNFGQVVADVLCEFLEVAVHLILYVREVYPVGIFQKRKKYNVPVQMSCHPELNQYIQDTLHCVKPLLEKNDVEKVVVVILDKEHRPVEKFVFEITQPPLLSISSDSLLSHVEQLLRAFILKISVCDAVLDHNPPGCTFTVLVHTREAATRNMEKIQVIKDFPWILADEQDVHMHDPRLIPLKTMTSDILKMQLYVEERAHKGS

B1: GST-ATRIP 203–348 (domain or fragment)
chain: RTKLQTSERANKLAAPSVSHVSPRKNPSVVIKPEACSPQFGKTSFPTKESFSANMSLPHPCQTESGYKPLVGREDSKPHSLRGDSIKQEEAQKSFVDSWRQRSNTQGSILINLLLKQPLIPGSSLSLCHLLSSSSESPAGTPLQPP
binding result: binds

B2: GST-ATRIP 203–307 (WT) (domain or fragment)
chain: RTKLQTSERANKLAAPSVSHVSPRKNPSVVIKPEACSPQFGKTSFPTKESFSANMSLPHPCQTESGYKPLVGREDSKPHSLRGDSIKQEEAQKSFVDSWRQRSNT
binding result: binds
